# Source: article PMC7035337, “Binding of the periplakin linker requires vimentin acidic residues D176 and E187” (Communications Biology, 2020)
# Values joined by “and” are separate entries in the source; they are usually repeats but may differ in a detail not shown here. Equal entries are not always repeated.
# T1: periplakin linker domain R1713E (human, UniProt O60437 1646-1756, R1713E)
# T1 construct: human periplakin linker domain, residues K1646-K1756; also called Periplakin R1713E
# T1 sequence (looked up): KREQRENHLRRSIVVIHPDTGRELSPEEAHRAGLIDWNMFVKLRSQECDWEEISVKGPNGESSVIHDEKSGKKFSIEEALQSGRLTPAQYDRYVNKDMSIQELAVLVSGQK
# T2: periplakin linker domain R1655E/R1656E (human, UniProt O60437 1646-1756, R1655E | R1656E)
# T2 construct: human periplakin linker domain, residues K1646-K1756
# T2 sequence (looked up): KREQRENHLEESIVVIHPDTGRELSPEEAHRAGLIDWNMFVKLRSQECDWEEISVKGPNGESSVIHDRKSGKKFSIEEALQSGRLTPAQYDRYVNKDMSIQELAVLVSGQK
# T3: periplakin linker domain R1713E/K1714E (human, UniProt O60437 1646-1756, R1713E | K1714E)
# T3 construct: human periplakin linker domain, residues K1646-K1756
# T3 sequence (looked up): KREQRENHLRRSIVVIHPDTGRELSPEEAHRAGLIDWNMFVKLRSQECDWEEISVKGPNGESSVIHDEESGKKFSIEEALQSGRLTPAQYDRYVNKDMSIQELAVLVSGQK
# T4: periplakin linker domain R1737E/K1741E (human, UniProt O60437 1646-1756, R1737E | K1741E)
# T4 construct: human periplakin linker domain, residues K1646-K1756
# T4 sequence (looked up): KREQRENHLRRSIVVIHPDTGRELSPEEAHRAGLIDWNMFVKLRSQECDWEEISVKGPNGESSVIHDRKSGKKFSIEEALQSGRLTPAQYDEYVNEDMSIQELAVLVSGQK
# T5: periplakin linker domain K1687E/R1689E (human, UniProt O60437 1646-1756, K1687E | R1689E)
# T5 construct: human periplakin linker domain, residues K1646-K1756
# T5 sequence (looked up): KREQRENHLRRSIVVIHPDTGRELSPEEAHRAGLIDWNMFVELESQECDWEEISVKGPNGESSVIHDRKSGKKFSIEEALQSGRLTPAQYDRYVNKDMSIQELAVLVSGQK
# B1: vimentinROD, wild-type (residues T99-I249, coils 1A and 1B) (domain or fragment)
# chain: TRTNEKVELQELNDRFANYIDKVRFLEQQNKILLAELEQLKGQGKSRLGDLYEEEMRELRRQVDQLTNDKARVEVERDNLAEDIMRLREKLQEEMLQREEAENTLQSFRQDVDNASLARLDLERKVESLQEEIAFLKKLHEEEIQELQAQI
# modifications: NT647 fluorescent dye (Monolith NT His-Tag Labelling Kit RED-tris-NTA)
# notes: human vimentin, residues T99-I249; Non-cleavable His tag
# How the values were obtained:
# Conditions in all cases: both partners purified
# vimentinROD E172K = target: T6, vimentinROD E172K (human, UniProt P08670 99-249, E172K, NT647 fluorescent dye (Monolith NT His-Tag Labelling Kit RED-tris-NTA)); assay: MST; 50 nM NT647-labelled vimentinROD, linker titrated 780 nM to 800 μM; 150 mM NaCl, 20 mM HEPES pH 7.5, 0.015% Tween 20; 25 °C; MST-on time 5 s; one-ligand binding model; single experiments or merged data sets
# T6 construct: human vimentin, residues T99-I249
# T6 sequence (P08670 99-249 E172K): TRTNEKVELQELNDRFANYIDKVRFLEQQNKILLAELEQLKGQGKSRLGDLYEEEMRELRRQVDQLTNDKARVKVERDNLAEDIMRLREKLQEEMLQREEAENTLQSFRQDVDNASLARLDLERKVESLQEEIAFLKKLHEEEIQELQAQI
# vimentinROD E180K = target: T7, vimentinROD E180K (human, UniProt P08670 99-249, E180K, NT647 fluorescent dye (Monolith NT His-Tag Labelling Kit RED-tris-NTA)); assay: as above
# T7 construct: human vimentin, residues T99-I249
# T7 sequence (P08670 99-249 E180K): as the sequence (P08670 99-249 E172K) above, with K74E, E82K counted along it
# [1] = target: B1; assay: MST; as a1 but 10 mM NaCl: 50 nM NT647-labelled vimentinROD, periplakin linker titrated; 25 °C; one-ligand binding model
# [2] = target: B1; assay: MST; as a1 but 50 mM NaCl: 50 nM NT647-labelled vimentinROD, periplakin linker titrated; 25 °C; one-ligand binding model
# [3] = target: B1; assay: MST; 50 nM NT647-labelled vimentinROD, linker titrated 780 nM to 800 μM; 150 mM NaCl, 20 mM HEPES pH 7.5, 0.015% Tween 20; 25 °C; MST-on time 5 s; one-ligand binding model; single experiments or merged data sets
# [4] = target: T8, vimentin^ROD (residues T99–I249) E172K (human, UniProt P08670 99-249, E172K, NT647 fluorescent dye (Monolith NT His-Tag Labelling Kit RED-tris-NTA)); assay: MST; 50 nM NT647-labelled vimentin^ROD, linker titrated 780 nM to 800 uM; 150 mM NaCl, 20 mM HEPES pH 7.5, 0.015% Tween 20; 25 C; one-site binding model
# T8 construct: vimentin, human, coils 1A and 1B of the central rod domain, residues T99-I249
# T8 sequence (P08670 99-249 E172K): as the sequence (P08670 99-249 E172K) above
# [5] = target: T9, vimentin^ROD (residues T99–I249), wild-type (human, UniProt P08670 99-249, NT647 fluorescent dye (Monolith NT His-Tag Labelling Kit RED-tris-NTA)); assay: as above
# T9 construct: vimentin, human, coils 1A and 1B of the central rod domain, residues T99-I249; Non-cleavable His tag; also called wild-type vimentin^ROD
# T9 sequence (P08670 99-249): as the sequence (P08670 99-249 E172K) above, with K74E counted along it
# [6] = target: T10, vimentin^ROD (residues T99–I249) E180K (human, UniProt P08670 99-249, E180K, NT647 fluorescent dye (Monolith NT His-Tag Labelling Kit RED-tris-NTA)); assay: as above
# T10 construct: vimentin, human, coils 1A and 1B of the central rod domain, residues T99-I249
# T10 sequence (P08670 99-249 E180K): as the sequence (P08670 99-249 E172K) above, with K74E, E82K counted along it
# [7] = target: T11, vimentin^ROD (residues T99–I249) D162K (human, UniProt P08670 99-249, D162K, NT647 fluorescent dye (Monolith NT His-Tag Labelling Kit RED-tris-NTA)); assay: as above
# T11 construct: vimentin, human, coils 1A and 1B of the central rod domain, residues T99-I249
# T11 sequence (P08670 99-249 D162K): as the sequence (P08670 99-249 E172K) above, with D64K, K74E counted along it
# [8] = target: T12, vimentin^ROD (residues T99–I249) E229K (human, UniProt P08670 99-249, E229K, NT647 fluorescent dye (Monolith NT His-Tag Labelling Kit RED-tris-NTA)); assay: as above
# T12 construct: vimentin, human, coils 1A and 1B of the central rod domain, residues T99-I249
# T12 sequence (P08670 99-249 E229K): as the sequence (P08670 99-249 E172K) above, with K74E, E131K counted along it
# [9] = target: T9, vimentin^ROD (residues T99–I249), …; assay: MST; as the standard MST assay (50 nM labelled vimentin^ROD, linker titrated) but in 10 mM NaCl
# [10] = target: T1, periplakin linker domain R1713E; assay: MST; 50 nM NT647-labelled vimentinROD, linker titrated 780 nM to 800 μM; 150 mM NaCl, 20 mM HEPES pH 7.5, 0.015% Tween 20; 25 °C; MST-on time 5 s; one-ligand binding model; single experiments or merged data sets
# [11] = target: T2, periplakin linker domain R1655E/R1656E; assay: as above
# [12] = target: T3, periplakin linker domain R1713E/K1714E; assay: as above
# [13] = target: T4, periplakin linker domain R1737E/K1741E; assay: as above
# [14] = target: T5, periplakin linker domain K1687E/R1689E; assay: as above
# [15] = target: T13, vimentin^ROD (residues T99–I249) D176K (human, UniProt P08670 99-249, D176K, NT647 fluorescent dye (Monolith NT His-Tag Labelling Kit RED-tris-NTA)); assay: MST; 50 nM NT647-labelled vimentin^ROD, linker titrated 780 nM to 800 uM; 150 mM NaCl, 20 mM HEPES pH 7.5, 0.015% Tween 20; 25 C; one-site binding model
# T13 construct: vimentin, human, coils 1A and 1B of the central rod domain, residues T99-I249; also called D176K vimentin^ROD; vimentin mutant D176K
# T13 sequence (P08670 99-249 D176K): as the sequence (P08670 99-249 E172K) above, with K74E, D78K counted along it
binder,measurement,setting,value
"periplakin linker domain, wild-type (residues K1646-K1756) (domain or fragment, human, human periplakin linker domain, residues K1646-K1756; also called Periplakin Linker Wild-type) KREQRENHLRRSIVVIHPDTGRELSPEEAHRAGLIDWNMFVKLRSQECDWEEISVKGPNGESSVIHDRKSGKKFSIEEALQSGRLTPAQYDRYVNKDMSIQELAVLVSGQK",Kd,vimentinROD E172K,26 µM and 24 µM and 27 µM and 29 µM
same,Kd,vimentinROD E180K,8 µM and 4 µM and 3 µM and 5.7 µM
same,Kd,[1],31 µM and 32 µM and 30.2 µM
same,Kd,[2],59 µM and 69 µM and 71 µM and 66 µM
same,Kd,[3],59 µM and 66 µM and 70 µM and 85 µM
"periplakin linker domain (K1646–K1756), wild-type (domain or fragment, human, UniProt O60437 1646-1756, looked up, periplakin linker domain, human, residues K1646-K1756; Vector pGEX-6P-1; also called wild-type periplakin linker; WT) KREQRENHLRRSIVVIHPDTGRELSPEEAHRAGLIDWNMFVKLRSQECDWEEISVKGPNGESSVIHDRKSGKKFSIEEALQSGRLTPAQYDRYVNKDMSIQELAVLVSGQK",Kd,[4],27 ± 4 µM
same,Kd,[5],70.5 ± 3.8 µM
same,Kd,[6],6 ± 2 µM
same,Kd,[7],68 ± 4 µM
same,Kd,[8],16 ± 2 µM
same,Kd,[9],31 ± 2 µM
"periplakin linker domain (K1646–K1756) R1655E/R1656E (domain or fragment, human, UniProt O60437 1646-1756, looked up, periplakin linker domain, human, residues K1646-K1756) KREQRENHLEESIVVIHPDTGRELSPEEAHRAGLIDWNMFVKLRSQECDWEEISVKGPNGESSVIHDRKSGKKFSIEEALQSGRLTPAQYDRYVNKDMSIQELAVLVSGQK",Kd,[5],380 ± 51 µM
B1,Kd,[10],210 µM and 160 µM and 240 µM
same,Kd,[11],351 µM and 382 µM and 444 µM
same,Kd,[12],143 µM and 145 µM and 123 µM
same,Kd,[13],57 µM and 43 µM and 29 µM and 47.9 µM
same,Kd,[14],312 µM and 306 µM and 273 µM
"periplakin linker domain (K1646–K1756) R1737E/K1741E (domain or fragment, human, UniProt O60437 1646-1756, looked up, periplakin linker domain, human, residues K1646-K1756; also called control double mutant) KREQRENHLRRSIVVIHPDTGRELSPEEAHRAGLIDWNMFVKLRSQECDWEEISVKGPNGESSVIHDRKSGKKFSIEEALQSGRLTPAQYDEYVNEDMSIQELAVLVSGQK",Kd,[5],48 ± 11 µM
"periplakin linker domain (K1646–K1756) R1713E (domain or fragment, human, UniProt O60437 1646-1756, looked up, periplakin linker domain, human, residues K1646-K1756; also called periplakin mutant R1713E; periplakin linker mutant R1713E) KREQRENHLRRSIVVIHPDTGRELSPEEAHRAGLIDWNMFVKLRSQECDWEEISVKGPNGESSVIHDEKSGKKFSIEEALQSGRLTPAQYDRYVNKDMSIQELAVLVSGQK",Kd,[5],200 ± 29 µM
same,Kd,[15],23 ± 4 µM
"periplakin linker domain (K1646–K1756) K1687E/R1689E (domain or fragment, human, UniProt O60437 1646-1756, looked up, periplakin linker domain, human, residues K1646-K1756) KREQRENHLRRSIVVIHPDTGRELSPEEAHRAGLIDWNMFVELESQECDWEEISVKGPNGESSVIHDRKSGKKFSIEEALQSGRLTPAQYDRYVNKDMSIQELAVLVSGQK",Kd,[5],300 ± 54 µM
"periplakin linker domain (K1646–K1756) R1713E/K1714E (domain or fragment, human, UniProt O60437 1646-1756, looked up, periplakin linker domain, human, residues K1646-K1756) KREQRENHLRRSIVVIHPDTGRELSPEEAHRAGLIDWNMFVKLRSQECDWEEISVKGPNGESSVIHDEESGKKFSIEEALQSGRLTPAQYDRYVNKDMSIQELAVLVSGQK",Kd,[5],135 ± 30 µM
"desmoplakin linker domain (Q2454–N2565) E2495K/C2497R (domain or fragment, human, UniProt P15924 2454-2565, looked up, desmoplakin linker domain, human, residues Q2454-N2565) QTSQKNTLRKRRVVIVDPETNKEMSVQEAYKKGLIDYETFKKLREQECEWEEITITGSDGSTRVVLVDRKTGSQYDIQDAIDKGLVDRKFFDQYRSGSLSLTQFADMISLKN",Kd,[5],600 ± 70 µM
